Consider 41 sequences from the nanobody polyreactivity screen of Harvey et al. (2022).

A short description of this series: yeast display, Sf9 membrane polyspecificity reagent, FACS + sequencing; frameworks hold sequencing errors. An outline of the steps:
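Using colony PCR, genes from sorted yeast display clones were amplified, then sequenced on MiSeq at 2 × 250 and filtered by CDR length. The clones had been stained with 10% biotinylated, detergent-solubilized Sf9 membrane reagent for 1 hour at 4 °C and sorted by FACS into low and high (top ~1%) gates on anti-HA and streptavidin fluorescence. Polyreactivity labels come from the gate of origin.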
Turning to “QVQLVESGGGLAQAGGSLRLSCAASGRTFVTNAMGWYRQAPGKERELVAAISKSGGRTYYADSVKGRFTISRDNAKNTVYLQMNSLKPEDTAVYYCAADKRYLSYDYWGQGTQVTVSS”, the “polyreactivity (PSR sort gate)” value is reported as “high polyreactivity”.
In the case of “QVQLVESGGGLVQAGGSLRLSCAASGRTFPYYAMGWYRQAPGKERELVARITSGSGTYYADSVKGRFTISRDNAKNTVYLQMNSLKPEDTAVYYCAAREPGVGYVGNYTGLVYWGQGTQVTVSS”, the “polyreactivity (PSR sort gate)” value is on record as “low polyreactivity”.
Regarding “QVQLVESGGGLVQAGGSLRLSCAASGRTFYVYAMGWYRQAPGKERELVAAIDFSSTSTYADSVKGRFTISRDNAKNTVYLQMNSLKPEDTAVYYCNVDPDLGGFDYWGQGTQVTVSS”, the “polyreactivity (PSR sort gate)” value was “low polyreactivity”.
For “QVQLVESRGGLVQAGGSLRLSSAASGFTFRYYLMGWYRQAPRKERELVAAITWSGGTTNYADSVKGRFTISRDNAKNSVYLQMNSLKPEDTAVYYCNAARSRGANRVPPYRLYYWGQGTQVTVSS”, the “polyreactivity (PSR sort gate)” value is “low polyreactivity”.
As for “QVQLVESCGGLVQAGGSLRVSCAASGITFDGYAMGSYRQAPGKERELVAAITRRGGNTYYADSVKGRFTISRDNAKNTVHLQLNSQKPEDTAFYYCNAQVVHYRVSSVITYTIYDYSGQGTQVTVSS”, the “polyreactivity (PSR sort gate)” value is given as “high polyreactivity”.
The value for “QVQLVESGGGLVQAGGSLRLSCAASGYIFYHNTMGWYRQEPGKERELVAAITIGGRTYYADSVKGRFTISRDNAKNTVYLQMNSLKPEDTAVYYCATASYRNPSDYWGQGTQVSVSS” was “high polyreactivity”.
As for “QVQLVESGGALVQAGGSLLLSCAASGSIFQPYAMGWYRQAPGKERELVAAITNGGSTYYADSVKGRFTISRDNAKNTVYLQMNSLNPEDTAVYYFAADVQSSHVYDYWGQGTQVTVSS”, the “polyreactivity (PSR sort gate)” value was “low polyreactivity”.
In the case of “QVQLVESGGGLVQAGGSLRLSCAASGIIIRKYAMGWYRQAPGKERELVAAITTRGSRTYYADSVKGRFTISRDNAKNTVYLQMNSLKPEDTAVYYCAADRYTVRMDYWGQGTQVTVSS”, the “polyreactivity (PSR sort gate)” value is “high polyreactivity”.
The entry for “QVQLVESGGGLVQAGGSLRLSCAASGSTFAGYTMGWYRQAPGKERELVAAITGGGSTYYADSVKGRFTISRDNAKNTVYLQMNSLKPEDTAVYYCAARWWTYGIGYGYWGQGTQVTVSS” is “high polyreactivity”; for “QVQLVESGGGLVKAGGSLRLSCAASGFNFSSYALGWYRPAPGKERELVAAISYSGGSTYYADSVKGRFTISRDNAKNTVYLQMNSLKPEDTAVYYCNKLRGYGLRYIVSLDYWGQGTQVSVSS” it is “high polyreactivity”; for “QVQLVESGVGLVQAGGSLRLCCAASGSTSKYYAMVWYRQSPGKERELVAAITWSDVSTYYADSVKGRFTISRDNAKNTVYLQMNSLKPADTAVYYCNAGYDYWGQGTQVTVSS” it is “low polyreactivity”.
Turning to “QVQLVESGVGLDQAGGSLRLSCAASGGIIAINAMGWYSQAPGKERELVAAISWGDGMTYYADSVKGRFTISRDNAKNTVYLQMNSLKPDDSAVYYCAADADEYRGGDVSWGQGTQVTVSS”, the “polyreactivity (PSR sort gate)” value was “low polyreactivity”.
“QVQLVESGGGLVQAGGSLRLSCAASGFTFYRYAMGWYRQAPGKERELVAAITSAGSTYYADSVKGRFTISRDNAKNTVYLQMNSLKPEDTAVSYCNAVGYFSYRDRDSEYYYNYGSWGQGTQVTVSS”: the “polyreactivity (PSR sort gate)” value is “low polyreactivity”.
The entry for “QVQLEESGGGLVQAGGSLRLSCAASGSIFYTYAMGWYRQAPGTERELVAAISRSGGSTYYADSVKGRFTISRDNAKNTVYLQMNSLKPEDTSVYYCAARPPYRVGIVPLGRREYYWGQGTQVTVSS” is “high polyreactivity”; for “QVQLVESGGGLVQAGGSLRLSCAASGGTFVYNAMGWNRQAPGKERELVAAISRSGSRTYYADSVKGRFTISRDNAKNTVYLQMNSLKPEDTAVYYCAARGYYPEYNHWGQGSQVTVSS” it is “high polyreactivity”.
Turning to “QVQLVESGGGLVQAGGSLRLSCAASGLILSSNAMGWYRQAPGKERELVAAITWDGDRTYADSVKGRFTISRDNAKNTVYLQMNSLKPEDTAVYYCAADKQYYWYDWSYVYWGQGTQVTVSS”, the “polyreactivity (PSR sort gate)” value is listed as “low polyreactivity”.
Take “QVQLVESGGGLVQAGGSLRLSCAASGSIFRIYAMGWYRQAPGKERELVAAIDSSGGSTYYADSVKGRFTISRDNAKNTVYFQMNSLKPEDTAVYYCNATFGYPFVDYDDYWGQGTQVTVSS”: the “polyreactivity (PSR sort gate)” value is given as “low polyreactivity”.
The value for “QVQLVESGGGLVQAGGSLRLSCAASGSTFGDYAMGWYRQAPGKERELVAAISVSGASTYYADSVKGRFTISRDNAKNTVYLQMNSLKPEDTAVYYCAATYDTIGDSWGQGTQVTVSS” was “low polyreactivity”; that for “QVQLVESGGGLVQAGGSLRLSCAASGSISYRYVMGWYRQAPGKERELVAAITTSGGSTYYADSVKGRFTISRDNAKNTVYLQMNSLKPEDTAVYYCATVYQAAQLRSHYDYWGQGTQVTVSS” was “high polyreactivity”; that for “QVQLVESGGGLVQAGGSLRLSCAASGRIFDVNAMGWYRQAPGKERELVAAINKSGGTTYYADSVKGRFTISRDNAKNTVYLQMYSLKPEDTAVYYCAADSYSSRYDYWGQGTQVTVSS” was “high polyreactivity”.
The entry for “QVQLQESGGGLVQAGGSLRLSCAASGNTSDTGYMGWYRQAPGKERKLVASIDYGSNTYYADSVKVRFTISRDNAKNTVYLQMNSLKPEDTAVYYCAAYYIGDYTLVYWGQGTQVTVSS” is “high polyreactivity”; for “QVQLVESGGGLVQAGGSLRLSCAASGRTFVKYAMGWYRQAPGKERELVAAISSRGSSTYYADSVKGRFTISRDNAKNTVYLQMNSLKPEETAVYYCNAVYYYNPGYDYWGQGTQVTVSS” it is “high polyreactivity”; for “QVQLVESGGGLVQAGGSLCLSGAASGITFRFYAMGWYRQAPGKERELVAAISWSGGRTYYADSVKWRFTISRDNAKNTVYLQMNSLKPEDTAVYYCAAVASSVPGYDYWGQGTQVTVSS” it is “low polyreactivity”.
The value for “QVQLVESGGGLVQAGGRLRISCAASGSIFKGYARGWSRQAPGKERELVAAISGSGTSTYYADSVKGRFTISRDNAKNTVYLQMNSLKPEDTAVYYCATGWYTVFSSRMYSWGQGTQVTVSS” was “high polyreactivity”.
With “QVQLVESGGGLFQAGGSLRLSCAASGITFAQYAMGWYRQAPGKDRELVAVISSGGSTNYADSVKGRFTISRDNAKNTVYLQMNSMKPEDTAVYYCNADEAAPVYSYYYWGQGTQVTVSS”, the “polyreactivity (PSR sort gate)” value is given as “low polyreactivity”.
“QVQLVESGGGLVHPGGSLRLSCAASGIIFGRYTMGWYRQAPGKERELVAAITSSGITYYADSVKGRFTISRDNAKNTVYLQMNSLKPEDTAVYYCNADYSIPGYYWPYDYWGQGTQVTVSS”: the “polyreactivity (PSR sort gate)” value is “low polyreactivity”.
Take “QVQLVESGGGLVQAGGSLRLSCAASGFTFGINAMGWYRQAPGKERELVAAINQSGDRTYYADSVKGRFTISRDNAKNTVYLQMNSLKPEDTAVYYCAGPSYWGGGRYRYGYWGQGTQVTVSS”: the “polyreactivity (PSR sort gate)” value was “high polyreactivity”.
The entry for “QDQLVESGGGLVQAGGSLRLSCAASGGTFIYNTMGWYRQAPGKERELVAAINSGGSTTYADSVKGRFTISRDNAKNTVYLQMNSLKPEDTAVYYCAAVYVYLGVYARYPIWGYYYWGQGTQVTVSS” is “low polyreactivity”; for “QVQLVESVGGLDQAGGSLRLSCAASVFTFNIYVMGWYRQAPGKERELVAAISTSTGSTYYADSVKGRFTISRDNAKNTVYLQMNSLKPQDTAVYYCNADDYDLRFDYWGQGTQVTVSS” it is “low polyreactivity”; for “QVQLVESGGGLVQAGGSLRLSCAASGSIFYYNVMGWYRQAPGKERELVAAIDIDGSTYYADSVKGRFTISRDNAKNTVYLQMNSLKPEDTAVYYCNAQAPYWFSFYSDHKYDYWGQGTQVTVSS” it is “low polyreactivity”.
In the case of “QVQLVESGGGLVQAGGSLRLSCAASGSTFGFYAMGWFRQAPGKERELVAAISSSGSTYYADSVKGRFTISRDNAKNTVYVQINRLKPEDTAVYYCYADYWRYISSYDYWGQGTQVTVSS”, the “polyreactivity (PSR sort gate)” value is on record as “low polyreactivity”.
The value for “QVQLVESGGGLVQAGGSLRLSCAASGLTFYYYAMGWYRQAPGKERELVADISYSGGSTYYADSVKGRFTISRDNAKNTVYLQMNSLKPEDTAVYYCAAEGGYTISGSYDYWGQVTQVTVSS” was “low polyreactivity”; that for “QVQLVESGGGLVQAGGSLRLSCAASGSTFIVYAMGWYRQATGKERELVAAISLDGGSTYYADSVKGRFTISRDNAKNTVYLQMNSLKPEDTAVYYCNADYYANSITYDSWGQGTQVTVSS” was “low polyreactivity”; that for “QVQLVESGGGLVQAGGSLRLSCAASGSIFEYYVMGWYRQAPGKERELVAAISYSGDSTYYADSVKGRFTISRDNAKNTVYLQMNSLKPEDTAVYYCAAQYTRVIPPGYDYWGQGTQVTVSS” was “high polyreactivity”.
As to “QDQHVESGGGLVQAGGSLRLSCAASGFTIRNYAMGWYRQAPGKVMELVPAISKRGGNTYYADSVKGRFSISRDNAKNNVYLQLNSLKPEDTAVYFCAADYQFSQDVWHFGYCGQGTQVTVSS”, the “polyreactivity (PSR sort gate)” value is “high polyreactivity”.
The entry for “QVQLVESGGGLVQAGGSLRLSCAASGLTFRLNAMGWYRQAPGKERELVAAITSIADRTYYADSVKGRFTISRDNAKNTVYLQMNSLKPEDTAVYYCNVTPRRAQVRIGNYWGQGTQVTVSS” is “high polyreactivity”; for “QVQLVESGGGLVQAGGSLRLSCAASGSTFRGYAMGWYRQAPGKEREIVAAISRRGGTTYYADSVKGRFTISRDNAKNTVYLQMNSLKPEDTAVYYCNKVYYQHYLAFDYWGQGTQVTVSS” it is “high polyreactivity”; for “QVQLVESGGGLVQAGGSLRLSCAASGFTSRKNAMGWYRQAPGKERELVAAITQSSGRTYYADSVKGRFTISRDNAKNTVYLQMNSLKPEDTAVYYCAARRGGEDDYWGQGTQGTVSS” it is “low polyreactivity”.
The value for “QVQLVESGGGLVQAGGSLRLSCAASGFIFPGNVMGWYIQAPWKERELVAAISSGGGSTYYADSVKGRFTISRDNAKNSVYLQMNSLKPEDTAVYYCAKRTPRKWGQGTQVTVSS” was “high polyreactivity”; that for “QVQLVESAGGLVQAGGSLRLSCAASGFTFYYYTMGWYRQAPGKETELVAAITWRGGSTNYADSVKGRFTISRDNAKNTVYLQMNSLKPEDTAVYYCAAVSYWFWPGMDYWGQGTQVTVSS” was “low polyreactivity”; that for “QVQLVESGGGLVQAGGSLRLSCAASGLTFGLYAMGWYRQAPGKERELVAVITAGGRTYYADSVKGRFTISRDNAKNTVYLQMNSLKPEDTAVYYCATVNYGSGRGYRRVYTAYYYWGQGTQVTVSS” was “low polyreactivity”.
